# Results taken from IntAct's records for PubMed 22072710.
# B1: Bone marrow stromal antigen 2 (Homo sapiens), Q10589 (parent)
# chain: MASTSYDYCRVPMEDGDKRCKLLLGIGILVLLIIVILGVPLIIFTIKANSEACRDGLRAVMECRNVTHLLQQELTEAQKGFQDVEAQAATCNHTVMALMASLDAEKAQGQKKVEELEGEITTLNHKLQDASAEVERLRRENQVLSVRIADKKYYPSSQDSSSAAAPQLLIVLLGLSALLQ
# partner: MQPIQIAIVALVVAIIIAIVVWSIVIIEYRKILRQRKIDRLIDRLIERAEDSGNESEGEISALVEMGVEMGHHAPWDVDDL
# B2: Protein Vpu (Human immunodeficiency virus type 1 group M subtype B (isolate BH10) (HIV-1)), P69699 (parent)
# chain: B1 partner
# Variants of: B1
# Details: with vpu_hv1b1 vpu, P69699
row,Variant,effect of a mutation on the interaction
1,L41A,disrupting interaction
2,L37A,disrupting interaction
3,L24I;T45I,disrupting interaction strength
4,I26A,decreasing interaction
5,I34A,disrupting interaction

# Variants of: B2
# Details: with bst2_human BST2, Q10589
row,Variant,effect of a mutation on the interaction
1,A10F;A14F;A18F,decreasing interaction
2,W22A,decreasing interaction
3,A14F,decreasing interaction

# Variants of: B2
# Details: with bst2_human BST2, Q10589
# Remark: another data set of the same source
row,Variant,effect of a mutation on the interaction
1,A10F;A14F;A18F,disrupting interaction
